# Patent publication US11339213B2, “Methods and compositions for treatment of cancer” (MEREO BIOPHARMA 5, INC., priority 2015, dated 2022)
# What was measured:
# [1] = test system: OMP-PN8 pancreatic tumor cells; assay: OMP-PN8 pancreatic xenograft, antibodies in combination with gemcitabine; assay type: in vivo, NOD-SCID mice; settings: with gemcitabine 70 mg/kg weekly for four weeks, then antibody maintained, demcizumab, bevacizumab 15 mg/kg, bispecific 30 mg/kg
# Procedure: FIG. 9 is a graph showing that DLL4/VEGF bispecific is active in combination with gemcitabine in pancreatic cancer. OMP-PN8 pancreatic tumor cells were injected into NOD-SCID mice. Tumors were allowed to grow for 24 days until they had reached an average tumor volume of 110 mm^3. […] After four weeks of combination treatment, the gemcitabine was discontinued and the antibody treatments were maintained. Gemcitabine was dosed at 70 mg/kg, weekly.
# Following four weeks of treatment, the gemcitabine treatment was discontinued and the antibody treatments were maintained.
# [2] = test system: ovarian serous carcinoma tumor model OMP-OV19; assay: Tumor recurrence after chemotherapy termination, OMP-OV19; assay type: in vivo, NOD.SCID mice; settings: paclitaxel 15 mg/kg with or without antibody once a week for 4 weeks, chemotherapy maintenance 3-4 weeks, monitored up to 2 months after discontinuation
# Procedure: FIGS. 7A and 7B are graphs showing delay in tumor recurrence by 305B83+21R30 and B20 following chemotherapy termination. Ovarian OMP-OV19 and pancreatic OMP-PN42-tumor bearing animals were randomized and treatment began when mean tumor volumes reached approximately 100-150 mm^3. NOD. SCID mice were treated with 15 mg/kg paclitaxel in OMP-OV19 and 10 mg/kg gemcitabine plus 30 mg/kg nab-pacltiaxel in OMP-PN42 with or without antibody once a week for 4 weeks, followed by a chemotherapy for 3-4 weeks. Thereafter, treatment was discontinued and tumor growth was monitored up to 2 months.
# To determine the effect of simultaneous blockade of DLL4 and VEGF by the bi-specific antibody 305B83 plus 21R30 (anti-mDLL4) and B20 (anti-mVEGF) on tumor recurrence, an ovarian serous carcinoma tumor model OMP-OV19 and a pancreatic adenocarcinoma model OMP-PN42 were treated in combination with standard of care agents (paclitaxel in ovarian cancer and gemcitabine/nab-paclitaxel in pancreatic cancer) for four weeks followed by a chemotherapy maintenance phase for 3-4 weeks. Subsequently, tumor growth was monitored for up to two months following the discontinuation of treatment.
# OMP-PN42 tumors = assay: OMP-PN42 xenograft, gemcitabine plus nab-paclitaxel with complete DLL4/VEGF inhibition; assay type: in vivo, NOD-SCID mice
# Procedure: FIG. 11 is a graph showing activity of anti-DLL4/VEGF bispecific in combination with gemcitabine plus nab-paclitaxel (ABRAXANE®). OMP-PN42 tumors were implanted in NOD-SCID mice. Tumor-bearing mice (n=10/group) were treated with control Ab, gemcitabine alone (30 mg/kg weekly), gemcitabine plus nab-paclitaxel, or the combination of anti-DLL4/VEGF (305B83, 21R30, B20) and gemcitabine plus nab-paclitaxel. Antibodies were dosed 10 mg/kg, weekly.
# In patient-derived xenograft experiments, the stroma and vasculature is comprised of murine cells, whereas the tumor cells are human. Because DLL4 and VEGF are expressed in both tumor cells and in the stroma/vasculature, the previous experiments that were carried out with DLL4 and VEGF antagonists that block signaling of the human, but not murine, proteins and may have underestimated the full anti-tumor effect of blocking these pathways. To address this issue, the effect of simultaneous blockade of DLL4 and VEGF in both human tumor and murine stroma/vasculature cells in our xenograft studies were evaluated. This was done with experiments including surrogate antibodies—anti-mouse DLL4 (21R30) and anti-mouse VEGF (B20) in addition to 305B83 (which blocks human DLL4 and VEGF). Complete DLL4/VEGF inhibition in combination with gemcitabine plus nab-paclitaxel in OMP-PN42 tumors was tested.
# [3] = test system: OMP-PN8 pancreatic tumor cells; assay: Serial transplantation study of tumor initiating cell frequency, OMP-PN8; assay type: in vivo; settings: four weeks of treatment, 90 tumor cells into 10 new mice, 83 days without treatment
# Procedure: FIG. 10 is a graph showing reduction of tumor-initiating cell frequency from anti-DLL4 activity. […] After four weeks of treatment, tumors were harvested, and the human tumor cells in the xenograft were purified. Ninety tumor cells from each treatment group were injected into new cohorts of 10 mice. Tumors were allowed to grow for 83 days without any further treatment. The volumes of the individual mice in the experiment are shown in the graph.
# To determine the effect of DLL4 and VEGF inhibition on tumor initiating cell frequency in pancreatic cancer, serial transplantation studies were performed. […] Following four weeks of treatment, the tumors were harvested, and tumor cells from each treatment were implanted into a new set of mice. Tumors were then allowed to grow for 83 days without treatment. In the control group, nine out of ten mice grew large tumors (FIG. 10).
# xenograft tumor models = settings: Hoey et al., 2009; U.S. Pat. No. 7,750,124; cited from earlier work
# [4] = test system: vasculature-related genes, Notch target genes; assay: Vasculature density and stromal/vascular and Notch target gene expression in treated xenograft tumors; assay type: in vivo, mouse; settings: human genes in tumors
# Procedure: FIGS. 5A-5C are photomicrographs and graphs showing anti-VEGF inhibition of angiogenesis is dominant over anti-DLL4 hyperproliferation in animals receiving 305B83.
# These experiments were carried out by including surrogate antibodies—anti-mouse DLL4 (21R30) and anti-mouse VEGF (B20).
# [5] = Phase 1a trial side effects; assay type: in vivo, human; settings: patients receiving 305B83
# Procedure: To manage this side effect, a treatment algorithm was developed. First, if the patient's blood pressure exceeds 140/90, the patient is instructed to phone the principal investigator. The initial goal is to normalize blood pressure in 48-72 hours. Treatment with antihypertensive is to be adjusted daily if the blood pressure is not less than 140/90.
# OMP-C8 colon tumor cells = assay: Human-mouse chimera skin graft model, luciferase-labeled OMP-C8 colon tumor growth; assay type: in vivo, NOD/SCID mice; settings: OMP-C8 in human skin graft; 25 mg/kg intraperitoneally once a week; bioluminescence; compared to control antibody
# Procedure: Neonatal foreskin graft of about 2 cm^2 was implanted into the lateral trunk of anesthetized NOD/SCID mice. Luciferase-labeled human OMP-C8 colon tumor cells were then injected intradermally into the human skin graft 6 weeks post implant. Treatment was initiated 2 weeks later. Tumor growth was monitored by measurement of bioluminescence with the IVIS-200 Imaging System (Caliper Life Sciences).
# To evaluate the effect of the bispecific anti-DLL4/VEGF antibody on tumor growth in a microenvironment composed of human cells, the human-mouse chimera skin graft model, in which human tumor cells are implanted intradermally into the full thickness of human skin previously transplanted onto mice was used.
molecule,measurement,setting,value
bevacizumab: humanized anti-VEGF monoclonal antibody [reference compound],tumor growth after gemcitabine withdrawal,[1],had no effect
CC(=O)O[C@H]1C(=O)[C@@]2(C)[C@H]([C@H](OC(=O)c3ccccc3)[C@]3(O)C[C@H](OC(=O)[C@H](O)[C@@H](NC(=O)c4ccccc4)c4ccccc4)C(C)=C1C3(C)C)[C@]1(OC(C)=O)CO[C@@H]1C[C@@H]2O [paclitaxel],tumor growth during and after chemotherapy,[2],grew continuously during the course of study
"Nc1ccn([C@@H]2O[C@H](CO)[C@@H](O)C2(F)F)c(=O)n1 [gemcitabine, reference compound]",tumor growth under chemotherapy,"OMP-PN42 tumors; gemcitabine 30 mg/kg weekly, alone or plus nab-paclitaxel",minimal effect
"demcizumab: anti-DLL4 antibody, also known as OMP-21M18 or 21M18 (antibody, chains of the INN, looked up, V domains shown) VH: QVQLVQSGAEVKKPGASVKISCKASGYSFTAYYIHWVKQAPGQGLEWIGYISSYNGATNYNQKFKGRVTFTTDTSTSTAYMELRSLRSDDTAVYYCARDYDYDVGMDYWGQGTLVTVSS VL: DIVMTQSPDSLAVSLGERATISCRASESVDNYGISFMKWFQQKPGQPPKLLIYAASNQGSGVPDRFSGSGSGTDFTLTISSLQAEDVAVYYCQQSKEVPWTFGGGTKVEIK",tumor growth frequency after serial transplantation,[3],tumor growth frequency was reduced
same,tumor growth after gemcitabine withdrawal,[1],significantly delayed tumor growth
same,frequency of cancer stem cells,xenograft tumor models,reduce the frequency of cancer stem cells
same,tumor growth,xenograft tumor models,inhibit tumor growth
"305B83: bispecific antibody 219R45-MB-21R83, anti-VEGF/anti-DLL4; blocks human DLL4 and VEGF (antibody, chains of the INN, looked up, V domains shown) VH: QVQLVQSGAEVKKPGASVKISCKASGYSFTAYYIHWVKQAPGQGLEWIGYISNYNRATNYNQKFKGRVTFTTDTSTSTAYMELRSLRSDDTAVYYCARDYDYDVGMDYWGQGTLVTVSS VL: DIVMTQSPDSLAVSLGERATISCRASESVDNYGISFMKWFQQKPGQPPKLLIYAASNQGSGVPDRFSGSGSGTDFTLTISSLQAEDVAVYYCQQSKEVPWTFGGGTKVEIK VH2: QVQLVQSGAEVKKPGASVKVSCKASGYTFTNYWMHWVRQAPGQGLEWMGDINPSNGRTSYKEKFKRRVTLSVDKSSSTAYMELSSLRSEDTAVYFCTIHYDDKYYPLMDYWGQGTLVTVSS VL2: DIVMTQSPDSLAVSLGERATISCRASESVDNYGISFMKWFQQKPGQPPKLLIYAASNQGSGVPDRFSGSGSGTDFTLTISSLQAEDVAVYYCQQSKEVPWTFGGGTKVEIK",Notch target gene expression in tumors,[4],modulated Notch target gene expression in tumors similarly to anti-DLL4
same,side effects observed,[5],development or exacerbation of hypertension in some patients
same,inhibition of tumor growth (TGI),OMP-C8 colon tumor cells,87 % TGI
same,"tumor growth, complete DLL4/VEGF inhibition with chemotherapy","OMP-PN42 tumors; 305B83 plus surrogates 21R30 and B20, 10 mg/kg weekly, with gemcitabine plus nab-paclitaxel",complete tumor regression
